Consider three molecules from article PMC12529457, “Selection of DNA Aptamers Against Parathyroid Hormone for Electrochemical Impedimetric Biosensor System Development”.

Holding throughout (test): fluorescent magnetic bead binding assay; peptide on beads, aptamer 100-2500 nM; Bead assay: SELEX conditions (PBS, room temperature), 30 min incubation then wash, pH not stated; EIS: 30 min at ambient temperature, PBS wash, read in 0.1 M KCl with 5 mM ferri/ferrocyanide
Holding throughout (conditions): protein: commercial; tags: none stated; amine-coupled to carboxy magnetic beads

One series has as its target T1, PTH (1-84) (UniProt P01270 32-115).
T1 sequence: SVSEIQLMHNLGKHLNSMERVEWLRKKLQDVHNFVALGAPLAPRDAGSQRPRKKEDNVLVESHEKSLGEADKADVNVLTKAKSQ

The target in another series is T2, PTH (53-84) (UniProt P01270 84-115).
T2 chain: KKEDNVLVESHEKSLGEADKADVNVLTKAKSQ

Another series deals with T3, PTH (1-34) (UniProt P01270 32-65).
T3 chain: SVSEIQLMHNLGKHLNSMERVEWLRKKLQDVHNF

B1: Aptamer-PTH (1-84) (ssDNA)
DNA: TATTGGTATGTGCGTCGTCGGTGACCTCTTTCACGGCCGG
As to B1, the dissociation constant Kd (commonly the free concentration of one partner at which half of the binding sites on the other are occupied at equilibrium, for simple one-to-one binding) in the series with PTH (1-84) amounted to 340 ± 23.3 nM.

B2: Aptamer-PTH (53-84) (ssDNA)
DNA: GCGTGGTATGTGCGTCGTCGCTAATGAATTTGTAGCCTAC
Turning to B2, the Kd with PTH (53-84) was determined as 220 ± 57.5 nM.

B3: Aptamer-PTH (1-34) (ssDNA)
DNA: GCGTGGTATGTGCATCGTCAGTGAGGGGTTGGCGGCCGAG
In the series with PTH (1-34), B3 yielded a Kd of 516 ± 41 nM.
